One block for each binder: values may come before it.
Legend:
extended synaptotagmin 2 = biological target: T1, extended synaptotagmin 2 (human, UniProt A0FGR8 564-921)
T1 construct: HuProt array protein; labelled _frag; also called ESYT2_frag
T1 sequence: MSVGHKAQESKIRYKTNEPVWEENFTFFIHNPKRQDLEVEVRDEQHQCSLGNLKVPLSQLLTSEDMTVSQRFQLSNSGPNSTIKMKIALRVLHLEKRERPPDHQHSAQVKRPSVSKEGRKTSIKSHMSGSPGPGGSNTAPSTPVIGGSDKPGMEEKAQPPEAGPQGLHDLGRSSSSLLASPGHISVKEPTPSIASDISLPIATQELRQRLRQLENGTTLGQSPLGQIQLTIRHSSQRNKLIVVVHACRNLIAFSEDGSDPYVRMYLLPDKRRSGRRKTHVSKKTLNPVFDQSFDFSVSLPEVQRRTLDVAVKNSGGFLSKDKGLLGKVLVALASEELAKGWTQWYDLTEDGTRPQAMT

[1] = biological target: T2, sorting nexin 33, transcript variant 1 (human, UniProt Q8WV41 1-574)
T2 construct: HuProt array protein, full-length recombinant from yeast; also called SNX33
T2 sequence: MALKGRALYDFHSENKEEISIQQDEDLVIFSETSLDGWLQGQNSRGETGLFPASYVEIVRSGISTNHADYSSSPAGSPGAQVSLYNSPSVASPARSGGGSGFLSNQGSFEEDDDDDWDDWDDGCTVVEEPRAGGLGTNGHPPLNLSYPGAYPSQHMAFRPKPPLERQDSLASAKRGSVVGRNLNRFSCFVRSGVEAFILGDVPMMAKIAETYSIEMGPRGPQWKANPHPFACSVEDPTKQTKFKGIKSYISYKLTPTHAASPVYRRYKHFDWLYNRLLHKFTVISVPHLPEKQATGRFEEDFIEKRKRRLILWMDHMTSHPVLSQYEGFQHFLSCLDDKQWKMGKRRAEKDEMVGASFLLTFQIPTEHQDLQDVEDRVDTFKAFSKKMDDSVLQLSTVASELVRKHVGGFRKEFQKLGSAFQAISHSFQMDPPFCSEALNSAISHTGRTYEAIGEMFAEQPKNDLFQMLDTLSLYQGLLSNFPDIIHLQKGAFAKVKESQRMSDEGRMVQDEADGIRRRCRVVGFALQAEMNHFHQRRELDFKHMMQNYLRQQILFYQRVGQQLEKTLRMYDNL

[2] = biological target: T3, FA complementation group G (human, UniProt O15287 1-622); experiment: protein array
T3 construct: on protein array; also called FANCG
T3 sequence: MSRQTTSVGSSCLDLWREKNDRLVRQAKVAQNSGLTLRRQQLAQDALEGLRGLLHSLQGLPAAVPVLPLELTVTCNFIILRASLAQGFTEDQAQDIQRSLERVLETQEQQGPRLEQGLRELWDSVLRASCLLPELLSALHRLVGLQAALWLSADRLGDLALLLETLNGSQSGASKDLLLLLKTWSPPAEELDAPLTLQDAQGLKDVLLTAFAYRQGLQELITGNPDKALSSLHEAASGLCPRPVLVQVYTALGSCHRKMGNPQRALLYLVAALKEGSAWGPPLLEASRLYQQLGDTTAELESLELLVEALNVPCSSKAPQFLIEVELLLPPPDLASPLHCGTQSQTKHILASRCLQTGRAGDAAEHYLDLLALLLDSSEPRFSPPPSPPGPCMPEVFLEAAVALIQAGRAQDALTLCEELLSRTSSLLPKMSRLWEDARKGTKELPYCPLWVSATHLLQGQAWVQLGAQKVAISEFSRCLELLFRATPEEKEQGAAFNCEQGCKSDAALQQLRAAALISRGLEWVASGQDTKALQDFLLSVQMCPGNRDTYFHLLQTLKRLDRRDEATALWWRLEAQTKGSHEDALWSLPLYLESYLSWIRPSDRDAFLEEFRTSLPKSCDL

[3] = biological target: T4, KH RNA binding domain containing, signal transduction associated 2, transcript variant 2 (human, UniProt Q5VWX1 1-349)
T4 construct: HuProt array protein, full-length recombinant from yeast; also called KHDRBS2
T4 sequence: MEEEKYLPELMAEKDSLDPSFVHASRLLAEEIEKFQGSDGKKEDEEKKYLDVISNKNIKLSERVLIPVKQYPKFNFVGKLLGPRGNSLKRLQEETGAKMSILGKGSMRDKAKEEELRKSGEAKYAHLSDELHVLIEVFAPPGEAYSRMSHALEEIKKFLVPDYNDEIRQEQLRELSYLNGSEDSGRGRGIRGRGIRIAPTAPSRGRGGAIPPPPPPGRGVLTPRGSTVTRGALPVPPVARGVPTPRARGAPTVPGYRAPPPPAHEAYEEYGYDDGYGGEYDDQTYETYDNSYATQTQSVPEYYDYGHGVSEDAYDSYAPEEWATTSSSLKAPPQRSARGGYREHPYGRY

[4] = biological target: T5, BAR/IMD domain containing adaptor protein 2, transcript variant 3 (human, UniProt Q9UQB8 1-511)
T5 construct: HuProt array protein, full-length recombinant from yeast; also called BAIAP2
T5 sequence: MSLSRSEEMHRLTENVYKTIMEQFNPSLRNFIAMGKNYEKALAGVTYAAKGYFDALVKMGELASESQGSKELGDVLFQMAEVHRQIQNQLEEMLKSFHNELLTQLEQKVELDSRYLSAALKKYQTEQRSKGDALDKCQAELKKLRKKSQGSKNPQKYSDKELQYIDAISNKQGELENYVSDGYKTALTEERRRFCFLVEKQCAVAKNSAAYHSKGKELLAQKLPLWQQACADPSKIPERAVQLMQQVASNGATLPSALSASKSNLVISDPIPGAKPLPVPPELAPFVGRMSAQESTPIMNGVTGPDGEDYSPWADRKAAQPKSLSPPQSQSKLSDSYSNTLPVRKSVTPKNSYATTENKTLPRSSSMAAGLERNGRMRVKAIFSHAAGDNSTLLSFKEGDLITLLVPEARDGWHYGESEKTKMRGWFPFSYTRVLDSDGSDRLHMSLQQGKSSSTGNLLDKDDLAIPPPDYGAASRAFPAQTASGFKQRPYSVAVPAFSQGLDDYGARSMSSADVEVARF

[5] = biological target: T6, homeobox and leucine zipper encoding (human, UniProt Q8IX15 25-550)
T6 construct: HuProt array protein, full-length recombinant from yeast; also called HOMEZ
T6 sequence: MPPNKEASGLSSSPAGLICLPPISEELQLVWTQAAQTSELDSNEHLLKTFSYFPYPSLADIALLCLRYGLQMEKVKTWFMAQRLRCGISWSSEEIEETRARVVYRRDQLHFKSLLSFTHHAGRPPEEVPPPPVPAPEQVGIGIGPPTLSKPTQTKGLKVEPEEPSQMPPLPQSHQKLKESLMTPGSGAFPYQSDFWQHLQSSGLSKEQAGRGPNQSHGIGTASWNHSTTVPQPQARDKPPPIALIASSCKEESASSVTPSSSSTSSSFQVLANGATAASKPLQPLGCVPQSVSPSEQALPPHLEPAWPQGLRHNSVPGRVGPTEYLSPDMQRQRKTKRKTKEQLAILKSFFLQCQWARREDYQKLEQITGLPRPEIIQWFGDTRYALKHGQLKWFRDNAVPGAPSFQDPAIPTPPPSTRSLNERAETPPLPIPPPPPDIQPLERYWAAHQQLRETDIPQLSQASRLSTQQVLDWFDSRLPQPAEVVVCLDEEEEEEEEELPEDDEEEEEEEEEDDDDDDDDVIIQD

[6] = biological target: T7, TruB pseudouridine synthase family member 1 (human, UniProt Q8WWH5 2-349)
T7 construct: HuProt array protein, full-length recombinant from yeast; also called TRUB1
T7 sequence: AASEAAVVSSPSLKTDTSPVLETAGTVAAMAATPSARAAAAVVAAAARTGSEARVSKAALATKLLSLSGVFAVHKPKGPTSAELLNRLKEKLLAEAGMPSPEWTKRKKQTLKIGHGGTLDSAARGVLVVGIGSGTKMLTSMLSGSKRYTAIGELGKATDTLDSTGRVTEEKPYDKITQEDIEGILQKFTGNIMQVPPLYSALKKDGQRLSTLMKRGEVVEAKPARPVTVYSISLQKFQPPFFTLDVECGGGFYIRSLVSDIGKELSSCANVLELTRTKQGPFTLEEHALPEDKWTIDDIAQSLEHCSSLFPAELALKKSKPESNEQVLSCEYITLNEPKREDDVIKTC

[7] = biological target: T8, phospholipid scramblase 4, transcript variant X4 (human, UniProt Q9NRQ2 1-329)
T8 construct: HuProt array protein, full-length recombinant from yeast; also called PLSCR4
T8 chain: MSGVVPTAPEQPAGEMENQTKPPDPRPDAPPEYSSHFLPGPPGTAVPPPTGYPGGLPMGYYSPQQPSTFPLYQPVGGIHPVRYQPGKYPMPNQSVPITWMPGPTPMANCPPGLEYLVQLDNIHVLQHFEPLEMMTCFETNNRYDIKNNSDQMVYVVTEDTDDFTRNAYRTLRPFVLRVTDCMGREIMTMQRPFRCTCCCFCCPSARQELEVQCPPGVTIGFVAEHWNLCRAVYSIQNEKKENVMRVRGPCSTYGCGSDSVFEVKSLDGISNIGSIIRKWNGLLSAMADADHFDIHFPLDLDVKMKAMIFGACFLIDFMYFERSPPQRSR

B1: TCOL1004 (antibody, V domains shown)
VH: QVQLQESGPGLVKPSQTLSLTCIVSGGSISGDKNFWSWVRQHPEKGLEWLGYISYNGNTYYNPSLISRIIISLDTPKNLFSLRLSSVTVADTAIYYCAREVDIRGDSDAFDIWGRGTVVTVSS
VL: EIVMTQSPATLSVSPGERATLSCRASQSVSTNLAWYQQRPGQAPRLFIFGASTRATGIPARFSGSGSGTEFTLTISSPQPEDSAVYYCQQYTTRPLTFGGGTKVEIKR
notes: detected with anti-human IgG Fc
binding result (extended synaptotagmin 2): binds

B2: TCER1006 (antibody, V domains shown)
VH: EVQLVQSGAEVKKPGESLKISCKGSGYSFTSFWIGWVRQMPGKGLEWMGIIFPADSDTRYSPSFQGQVIISVDKSISTAYLQWSSLKASDTAMYYCARRGVSGGSAWTYYNFFDPWGQGTLVTVAS
VL: PSVLTQPPSVSAAPGQKVTISCSGSSSNIDNNYVSWYQQLPGTAPKLLIYENNKRASGIPDRFSGSKSGTSATLGITGLQTGDEADYYCGTWDSSLSPGGVFGGGTKLTVLG
notes: as for B1
binding result [1]: binds

B6: TCER1003 (antibody, V domains shown)
VH: QITLKESGPTLVKPTQTLTLTCTFSGFSLTTTDVGVGWIRQPPGKALEWLTIIYWDDDERYSPSLKSRLTITKDTSKNQVVLSMTNMDPVDTATYYCARVYSTKWDFDYWGQGTLVTVSS
VL: VSSELTQDPAVSVALGQTVRITCQGDSLRRYYVSWYRQKPGEAPVVVIYGKNNRPSWIPDRLSGSSSGNTASLTITGAQAEDEADYYCCSRDSSGNPWVFGGGTKLTVLG
notes: as for B1
binding result [6]: binds
binding result [7]: binds

Second part, the binder after the results:

binding result [2]: binds
B3: TBRE1024 (antibody, V domains shown)
VH: PVQLQESGPGLVKPSETLSLTCTVSGGSISSDNYYWSWLRQHPGKGLEWIGYIYFSVTTYYNPSLKSRVTISLDTSKNQFSLKLSSVTAADTAVYYCASGYVSFDLWGQGTLVTVSS
VL: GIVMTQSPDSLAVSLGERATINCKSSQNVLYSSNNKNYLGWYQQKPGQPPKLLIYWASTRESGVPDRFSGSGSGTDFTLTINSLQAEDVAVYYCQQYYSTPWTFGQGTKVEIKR
notes: VH/VL only

binding result [3]: binds
B4: TCHO1001 (antibody, V domains shown)
VH: PVHLVQSGAEVKKPGSSVKVSCKLSGGIFSYFAIIWVRQAPGQGLEWMGTIIPIFGTSNYAEKFQDRVAIVADEATSTVYMEVNSLRSEDTAIYFCARDSEVEKSDGYMASTAEYFQLWGQGTLVTVSS
VL: not shown
notes: detected with anti-human IgG Fc; also called TCH01001

binding result [4]: binds
binding result [5]: binds
B5: TCOL1006 (antibody, V domains shown)
VH: EVQLVESGGGLVQPGGSLRLSCAASGFPPRSFAMSWVRQAPGKGLEWVSSISGLGNSIYYAESVKGRFITSRDNSKSTVFLLMNSLRAEDTAVYYCAKSAFGGVPDGFDIWGQGTMVTVSS
VL: QSVVTQPPSASGPPGQTVTISCSGGRSNVASHAVHWYQHLPGTAPKLLIYNDHQRPSGVPDRFSGSKSGPSASLAISGLRSEDEADYYCATWDDSLGGRVVFGGGTKLTVLG
notes: as for B1
